According to PMC12237909, “Wheat endosperm-specific transcription factor TaDOF6 enhances grain development by regulating TaSWEET13h expression and facilitating sugar and gibberellin transport”:

Target: T1, TaDOF6 (Triticum aestivum (wheat; cultivar of …, UniProt A0A3B6LII6 1-338)
T1 sequence: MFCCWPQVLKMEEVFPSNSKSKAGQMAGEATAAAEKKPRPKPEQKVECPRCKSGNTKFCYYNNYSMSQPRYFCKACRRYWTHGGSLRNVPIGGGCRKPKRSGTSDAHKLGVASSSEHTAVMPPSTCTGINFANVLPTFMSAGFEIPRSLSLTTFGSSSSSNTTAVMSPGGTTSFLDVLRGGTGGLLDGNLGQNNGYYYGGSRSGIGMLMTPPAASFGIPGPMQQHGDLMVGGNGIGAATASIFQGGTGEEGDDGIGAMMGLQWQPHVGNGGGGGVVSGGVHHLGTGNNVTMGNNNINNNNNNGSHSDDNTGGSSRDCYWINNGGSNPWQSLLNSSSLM
Assay: EMSA; EMSA buffer, salt, pH and temperature not stated (gel as in Zhang et al., 2016); probes annealed 95 C to 25 C
Settings: protein: recombinant; tags: His (pETMALc-H vector); label: biotin (printed at both ends of each strand); blunt

B1: TaSWEET13h promoter P-box probe (dsDNA)
DNA 1: ATTAAAGCTAAAGTGTACACCAAAGCGACAACTTTTG
DNA 2: CAAAAGTTGTCGCTTTGGTGTACACTTTAGCTTTAAT
binding result: binds
